Positions of bridges follow the written chain, without caps; N, C: chain ends. Non-standard residues stand in square brackets, D forms with d. *: point of attachment. ABM1 = 3-(naphthalene-2-sulfonamido)propanoic acid albumin-binding tag, amide-linked to N-terminus, O=C(CCNS(=O)(=O)c1ccc2ccccc2c1)*; ABM2 = diphenyl-cyclohexanol phosphate ester hexanoic acid tag; Trp(1-Me) = Cn1cc(C[C@H](N)C(=O)O)c2ccccc21; NMeI = CC[C@H](C)[C@H](NC)C(=O)O; Sar = CNCC(=O)O
Columns and labels:
complement component C3 = complement component C3 (human, UniProt P01024 672-1663); assay: cell-based or functional assay
Chain of complement component C3 (P01024 23-665 P314L limits assumed, chain 1 of 2): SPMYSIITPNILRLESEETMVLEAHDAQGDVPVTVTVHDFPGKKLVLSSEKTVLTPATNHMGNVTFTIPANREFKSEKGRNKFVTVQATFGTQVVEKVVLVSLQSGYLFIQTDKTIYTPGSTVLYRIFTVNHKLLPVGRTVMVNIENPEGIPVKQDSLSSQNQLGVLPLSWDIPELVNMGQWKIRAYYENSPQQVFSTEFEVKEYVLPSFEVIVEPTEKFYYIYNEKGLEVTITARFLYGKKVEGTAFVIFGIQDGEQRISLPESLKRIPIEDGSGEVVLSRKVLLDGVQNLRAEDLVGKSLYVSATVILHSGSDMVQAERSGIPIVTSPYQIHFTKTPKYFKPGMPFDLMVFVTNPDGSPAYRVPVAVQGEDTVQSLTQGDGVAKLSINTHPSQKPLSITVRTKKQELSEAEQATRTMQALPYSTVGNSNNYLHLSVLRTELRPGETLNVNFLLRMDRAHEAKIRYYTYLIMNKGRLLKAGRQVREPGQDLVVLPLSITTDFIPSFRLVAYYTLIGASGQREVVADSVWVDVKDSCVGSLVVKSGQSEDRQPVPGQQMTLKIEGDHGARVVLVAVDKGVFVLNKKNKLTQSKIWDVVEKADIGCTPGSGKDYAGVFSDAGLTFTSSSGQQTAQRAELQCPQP
Chain of complement component C3 (P01024 672-1663 limits assumed, chain 2 of 2): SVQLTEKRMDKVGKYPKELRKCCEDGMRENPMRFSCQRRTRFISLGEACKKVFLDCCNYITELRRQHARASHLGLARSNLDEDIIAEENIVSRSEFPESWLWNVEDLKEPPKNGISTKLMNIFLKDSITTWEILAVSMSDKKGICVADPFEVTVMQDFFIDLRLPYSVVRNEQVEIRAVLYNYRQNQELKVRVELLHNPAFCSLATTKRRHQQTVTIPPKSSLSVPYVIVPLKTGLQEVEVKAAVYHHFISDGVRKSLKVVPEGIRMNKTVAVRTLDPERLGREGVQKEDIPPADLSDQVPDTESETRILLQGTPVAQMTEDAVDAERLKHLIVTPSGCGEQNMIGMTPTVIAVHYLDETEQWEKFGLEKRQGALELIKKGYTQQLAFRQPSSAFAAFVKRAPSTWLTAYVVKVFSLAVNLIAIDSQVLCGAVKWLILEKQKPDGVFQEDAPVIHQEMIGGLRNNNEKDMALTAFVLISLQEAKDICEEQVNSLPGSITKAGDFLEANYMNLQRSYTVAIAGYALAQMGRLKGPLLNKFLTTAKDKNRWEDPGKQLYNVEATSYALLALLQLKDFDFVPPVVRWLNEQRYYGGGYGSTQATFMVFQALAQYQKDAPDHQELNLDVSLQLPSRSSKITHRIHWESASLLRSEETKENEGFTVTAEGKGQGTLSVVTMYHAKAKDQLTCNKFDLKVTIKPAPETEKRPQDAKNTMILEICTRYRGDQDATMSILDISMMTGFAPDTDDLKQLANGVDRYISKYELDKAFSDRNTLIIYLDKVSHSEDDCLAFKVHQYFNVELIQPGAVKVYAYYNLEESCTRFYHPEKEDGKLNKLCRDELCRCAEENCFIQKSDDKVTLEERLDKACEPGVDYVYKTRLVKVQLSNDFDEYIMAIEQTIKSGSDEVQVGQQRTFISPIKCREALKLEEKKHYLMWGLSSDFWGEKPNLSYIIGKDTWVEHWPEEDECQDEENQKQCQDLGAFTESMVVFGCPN

baboon albumin = baboon albumin (baboon); assay: SPR, albumin (6.3-100 µM) over immobilized biotinylated ABM2-Cp20; apparent affinity (KD app) from steady state, single-binding-site model
From the text: 1.2 Interaction of ABM-Compstatin conjugates with albumin.
To confirm the albumin-directed activity of the ABM-compstatin conjugates and further explore their simultaneous binding to C3 and albumin, we performed additional SPR binding studies. […] The biotinylated peptides were immobilized on a streptavidin-coated SPR sensor chip, and the interactions with albumins from different species (human, baboon, bovine, rabbit and mouse) were characterized (Table 3; FIG. 2).

[1] = target: T1, C3b (biotinylated, captured on a streptavidin sensor chip) (UniProt P01024 749-1663, biotinylated (site not stated)); assay: SPR (Biacore 3000), single-cycle kinetics, peptide over captured biotinylated C3b, 1:1 model, 25 °C
T1 construct: range 727-1641; also called site-specifically immobilized C3b
T1 sequence (P01024 23-665 P314L limits assumed, chain 1 of 2): as the sequence (P01024 23-665 P314L limits assumed, chain 1 of 2) above
T1 sequence (P01024 749-1663 limits assumed, chain 2 of 2): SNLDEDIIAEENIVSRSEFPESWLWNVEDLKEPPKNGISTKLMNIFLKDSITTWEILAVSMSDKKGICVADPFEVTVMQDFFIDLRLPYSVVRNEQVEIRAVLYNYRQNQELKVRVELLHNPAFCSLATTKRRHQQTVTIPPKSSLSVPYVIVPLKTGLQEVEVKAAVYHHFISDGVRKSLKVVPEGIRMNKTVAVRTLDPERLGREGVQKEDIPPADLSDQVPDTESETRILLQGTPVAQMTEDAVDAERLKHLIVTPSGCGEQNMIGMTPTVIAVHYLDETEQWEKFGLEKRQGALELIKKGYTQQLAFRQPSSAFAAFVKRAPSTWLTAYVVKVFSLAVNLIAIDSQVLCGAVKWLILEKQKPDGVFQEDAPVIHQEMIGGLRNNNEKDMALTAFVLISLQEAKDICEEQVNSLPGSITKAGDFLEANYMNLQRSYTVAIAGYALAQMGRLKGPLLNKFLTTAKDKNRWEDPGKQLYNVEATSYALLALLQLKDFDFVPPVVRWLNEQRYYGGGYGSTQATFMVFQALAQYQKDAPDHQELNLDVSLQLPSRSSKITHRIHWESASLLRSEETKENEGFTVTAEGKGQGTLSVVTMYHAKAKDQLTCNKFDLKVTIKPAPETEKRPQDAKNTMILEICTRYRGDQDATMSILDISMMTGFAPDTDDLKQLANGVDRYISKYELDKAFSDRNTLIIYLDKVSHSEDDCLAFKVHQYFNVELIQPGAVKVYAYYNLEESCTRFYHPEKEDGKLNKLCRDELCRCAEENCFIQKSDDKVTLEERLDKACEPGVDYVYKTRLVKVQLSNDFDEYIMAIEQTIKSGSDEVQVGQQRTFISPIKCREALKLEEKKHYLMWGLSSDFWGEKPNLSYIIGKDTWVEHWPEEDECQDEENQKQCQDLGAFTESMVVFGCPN
Method: 1.1 Interaction of Compstatin analogues with C3b. […] Individual injections within a cycle were 2 min long with a 5-min dissociation between injections. After the end of the last injection, a 40-min dissociation time was allowed. […] The kinetic evaluation was performed in BiaEvaluation using a single cycle kinetic template (kindly provided by GE Healthcare) by globally fitting each data set to a 1:1 Langmuir binding model to achieve association and dissociation rates (kₐ and kd, respectively); the equilibrium dissociation constant (KD) was calculated from the equation KD=kd/kₐ (FIG. 1). Each assay was performed at least twice.
^aSingle-cycle kinetic analysis of compstatin conjugates was performed. Sets of five increasing concentrations were consecutively injected over a C3b surface (3000-5000 RU density) in a single cycle. The processed signals were fitted to a 1:1 binding model.

Binder | IC50 (µM), inhibition of immune complex-induced (classical pathway) complement activation in human plasma, ELISA (complement component C3) | Kd (baboon albumin) | Kd [1] | koff [1] | kon [1]
ABM2-ICVWQDW[Sar]AHRC[NMeI]-NH2 (disulfide 2-12; not fully specified (residue 4); printed as ABM2-Ile-[Cys-Val-Trp(Me)-Gln-Asp-Trp-Sar-Ala-His-Arg-Cys]-mIle-NH2, also called ABM2-Compstatin 20) [ABM2-Cp20 (ABM2-Ile-[Cys-Val-Trp(Me)-Gln-Asp-Trp-Sar-Ala-His-Arg-Cys]-mIle-NH2)] | 0.17 µM | – | – | – | –
ABM1-ICV[Trp(1-Me)]QDW[Sar]AHRC[NMeI]-NH2 (disulfide 2-12; SMILES CC[C@H](C)[C@H](NC(=O)CCNS(=O)(=O)c1ccc2ccccc2c1)C(=O)N[C@H]1CSSC[C@@H](C(=O)N(C)[C@H](C(N)=O)[C@@H](C)CC)NC(=O)[C@H](CCCNC(=N)N)NC(=O)[C@H](Cc2c[nH]cn2)NC(=O)[C@H](C)NC(=O)CN(C)C(=O)[C@H](Cc2c[nH]c3ccccc23)NC(=O)[C@H](CC(=O)O)NC(=O)[C@H](CCC(N)=O)NC(=O)[C@H](Cc2cn(C)c3ccccc23)NC(=O)[C@H](C(C)C)NC1=O, also called ABMT-Cp20 (misprint of ABM1 in the text)) [ABM1-Cp20] | 0.2 µM | – | – | – | –
ICVWQDWGAHRCIK (not fully specified; ABM2 amide-linked to the N-terminus; Trp(Me) at position 4; Sar at position 8; mIle at position 13; disulfide Cys2-Cys12; miniPEG (AEEEA) spacer between mIle13 and the C-terminal Lys; biotin on the Lys side chain; made on Rink amide resin (C-terminal amide), Captured on streptavidin-coated CM5 chip at about 100 RU; also called biotinylated ABM2-Cp20; immobilized ABM2-Cp20) [ABM2-Cp20-miniPEG-Lys(biotin)] | – | 106000 nM | – | – | –
Ac-ICV[Trp(1-Me)]QDW[Sar]AHRC[NMeI]-NH2 (disulfide 2-12; SMILES CC[C@H](C)[C@H](NC(C)=O)C(=O)N[C@H]1CSSC[C@@H](C(=O)N(C)[C@H](C(N)=O)[C@@H](C)CC)NC(=O)[C@H](CCCNC(=N)N)NC(=O)[C@H](Cc2c[nH]cn2)NC(=O)[C@H](C)NC(=O)CN(C)C(=O)[C@H](Cc2c[nH]c3ccccc23)NC(=O)[C@H](CC(=O)O)NC(=O)[C@H](CCC(N)=O)NC(=O)[C@H](Cc2cn(C)c3ccccc23)NC(=O)[C@H](C(C)C)NC1=O, Synthetic cyclic 13-residue peptide; also called compstatin analog Cp20; C20) [Cp20 (Ac-Ile-[Cys-Val-Trp(Me)-Gln-Asp-Trp-Sar-Ala-His-Arg-Cys]-mIle-NH2)] | 0.26 µM | – | 2.9 nM | 0.0067 s⁻¹ | 2.3e+06 M⁻¹ s⁻¹

From patent US20170173107A1 (University of Pennsylvania, published 2017)
